Laboratory results as given in US20030095962A1, “Chimeric cell-surface receptors that undergo antigen-induced association” (priority 1997, published 2003).

Biological target: hen egg lysozyme (hen) (UniProt P00698)
Assay: cell-based or functional assay

pair of chimeric receptor polypeptides: HyHEL-10 VH fused to mouse erythropoietin receptor (pME-VHER) and HyHEL-10 VL fused to mouse erythropoietin receptor (pME-VLER), expressed on Ba/F3 cells (from, sequence (P14753 146-507, change not shown): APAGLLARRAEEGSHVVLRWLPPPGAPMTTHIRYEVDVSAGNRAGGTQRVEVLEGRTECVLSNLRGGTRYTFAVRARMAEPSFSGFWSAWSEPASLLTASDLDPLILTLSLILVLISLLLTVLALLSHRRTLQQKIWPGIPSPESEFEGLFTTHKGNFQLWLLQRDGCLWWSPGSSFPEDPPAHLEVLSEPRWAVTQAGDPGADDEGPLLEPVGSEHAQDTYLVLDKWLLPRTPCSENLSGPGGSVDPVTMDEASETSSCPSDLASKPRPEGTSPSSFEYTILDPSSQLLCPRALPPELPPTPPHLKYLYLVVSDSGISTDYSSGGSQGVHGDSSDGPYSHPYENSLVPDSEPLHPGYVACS
pair of chimeric receptor polypeptides: HyHEL-10 VH fused to mouse erythropoietin receptor (pME-VHER) and HyHEL-10 VL fused to mouse erythropoietin receptor (pME-VLER), expressed on Ba/F3 cells (from, sequence (P14753 146-507, change not shown): as above
hen egg lysozyme (hen), sequence (P00698 19-147): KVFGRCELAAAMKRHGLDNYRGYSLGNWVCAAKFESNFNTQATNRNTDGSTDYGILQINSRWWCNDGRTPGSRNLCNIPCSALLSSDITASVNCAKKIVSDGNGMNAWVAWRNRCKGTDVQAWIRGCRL

cell proliferation of Clone G8 cultured with different constant amounts of HEL over a 5-day period (times the rate): > 5
lowest HEL concentration giving accelerated cell growth: 5 ng/mL
Substance: pair of chimeric receptor polypeptides: HyHEL-10 VH fused to mouse erythropoietin receptor (pME-VHER) and HyHEL-10 VL fused to mouse erythropoietin receptor (pME-VLER), expressed on Ba/F3 cells (from UniProt P14753 146-507; P14753 146-507)
